{"source": "patent US6855515B1", "about": "“Autoantigenic fragments, methods and assays” (Merck & Co., Inc., priority 1998, dated 2005)", "data": [{"molecular_target": "T1, granzyme B (Homo sapiens, UniProt P10144)", "T1 construct": "Some of these preparations were used for the further purification of granzyme B (Tschopp, 1994); endogenous in cells; host or cells: YT cells (human NK cell line), cytoplasmic granules", "T1 sequence (P10144 21-247)": "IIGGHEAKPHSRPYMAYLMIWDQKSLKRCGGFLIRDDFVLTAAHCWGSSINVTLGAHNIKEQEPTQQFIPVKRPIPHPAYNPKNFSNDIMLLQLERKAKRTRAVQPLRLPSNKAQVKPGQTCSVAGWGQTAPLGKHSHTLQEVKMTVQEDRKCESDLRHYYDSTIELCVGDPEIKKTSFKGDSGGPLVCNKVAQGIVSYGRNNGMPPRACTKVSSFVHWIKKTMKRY", "test": "Susceptibility of autoantigens to cleavage by purified granzyme B (HeLa lysate immunoblot or immunoprecipitates)", "assay_type": "biochemical", "details": "in vitro", "protocol": "To determine whether susceptibility to direct cleavage by granzyme B was an isolated feature of PARP, NuMA and DNA-PKcs shown above, or whether it was a more general feature of autoantigens, a variety of well-defined autoantigens selected from across the spectrum of systemic autoimmune diseases were tested for susceptibility to cleavage by purified granzyume B. The efficiency of cleavage of the substrates by purified granzyme B was also noted (Table 3). Initially, a series of autoantibodies of well-defined specificity were used to immunoblot lysates of HeLa cells that had been incubated in vitro with or without granzyme B. Lysates were pre-treated with iodoacetamide (IAA) to prevent interference by endogenous caspase activity.\nTo perform these studies, HeLa cells were radiolabeled with [^35S] methionine/cysteine, and proteins were immunoprecipitated using human autoantibodies. Protein A-agarose beads containing washed precipitated proteins were resuspended in buffer supporting the activity of granzyme B, and incubated in the absence or presence of added purified granzyme B. Reaction products were visualized using SDS-PAGE and fluorography. To confirm the validity of this approach, several different autoantigens known to be cleaved by granzyme B, as well as several autoantigens and non-autoantigens that are not cleaved by granzyme B, were tested. Using autoantibodies that both immunoblot and immunprecipitate, the cleavage profiles obtained using granzyme B to cleave molecules in lysates (followed by detection with immunoblotting), and after immunoprecipitation (from [^35S]methionine-labeled HeLa lysate) were compared. Identical results were obtained using these 2 methods for cleaved autoantigens (topoisomerase-1, Mi-2, RNA polymerase II large subunit, Ku-70, PARP, and NOR-90), uncleaved autoantigens (Ku-80, Ro 60k), and control substrates (β-tubulin, vinculin). […] Of note, all these additional autoantigens (with the exception of RNA polymerase I) are targeted in autoimmune myositis. However, two other tRNA synthetases (threonyl tRNA synthetase and glycyl tRNA synthetase) that are also autoantigens in autoimmune myositis, were not cleaved using this approach.", "values": [{"molecule": "CENP B: autoantigen (protein) GPKRRQLTFREKSRIIQEVEENPDLRKGEIARRFNIPPSTLSTILKNKRAILASERKYGVASTCRKTNKLSPYDKLEGLLIAWFQQIRAAGLPVKGIILKEKALRIAEELGMDDFTASNGWLDRFRRRHGVVSCSGVARARARNAAPRTPAAPASPAAVPSEGSGGSTTGWRAREEQPPSVAEGYASQDVFSATETSLWYDFLPDQAAGLCGGDGRPRQATQRLSVLLCANADGSEKLPPLVAGKSAKPRAGQAGLPCDYTANSKGGVTTQALAKYLKALDTRMAAESRRVLLLAGRLAAQSLDTSGLRHVQLAFFPPGTVHPLERGVVQQVKGHYRQAMLLKAMAALEGQDPSGLQLGLTEALHFVAAAWQAVEPSDIAACFREAGFGGGPNATITTSLKSEGEEEEEEEEEEEEEEGEGEEEEEEGEEEEEEGGEGEELGEEEEVEEEGDVDSDEEEEEDEESSSEGLEAEDWAQGVVEAGGSFGAYGAQEEAQCPTLHFLEGGEDSDSDSEEEDDEEEDDEDEDDDDDEEDGDEVPVPSFGEAMAYFAMVKRYLTSFPIDDRVQSHILHLEHDLVHVTRKNHARQAGVRGLGHQS", "susceptibility to cleavage by granzyme B": "efficiently cleaved"}, {"molecule": "Isoleucyl tRNA synthetase (O.J.): autoantigen targeted in autoimmune myositis (protein) MLQQVPENINFPAEEEKILEFWTEFNCFQECLKQSKHKPKFTFYDGPPFATGLPHYGHILAGTIKDIVTRYAHQSGFHVDRRFGWDCHGLPVEYEIDKTLGIRGPEDVAKMGITEYNNQCRAIVMRYSAEWKSTVSRLGRWIDFDNDYKTLYPQFMESVWWVFKQLYDKGLVYRGVKVMPFSTACNTPLSNFESHQNYKDVQDPSVFVTFPLEEDETVSLVAWTTTPWTLPSNLAVCVNPEMQYVKIKDVARGRLLILMEARLSALYKLESDYEILERFPGAYLKGKKYRPLFDYFLKCKENGAFTVLVDNYVKEEEGTGVVHQAPYFGAEDYRVCMDFNIIRKDSLPVCPVDASGCFTTEVTDFAGQYVKDADKSIIRTLKEQGRLLVATTFTHSYPFCWRSDTPLIYKAVPSWFVRVENMVDQLLRNNDLCYWVPELVREKRFGNWLKDARDWTISRNRYWGTPIPLWVSDDFEEVVCIGSVAELEELSGAKISDLHRESVDHLTIPSRCGKGSLHRISEVFDCWFESGSMPYAQVHYPFENKREFEDAFPADFIAEGIDQTRGWFYTLLVLATALFGQPPFKNVIVNGLVLASDGQKMSKRKKNYPDPVSIIQKYGADALRLYLINSPVVRAENLRFKEEGVRDVLKDVLLPWYNAYRFLIQNVLRLQKEEEIEFLYNENTVRESPNITDRWILSFMQSLIGFFETEMAAYRLYTVVPRLVKFVDILTNWYVRMNRRRLKGENGMEDCVMALETLFSVLLSLCRLMAPYTPFLTELMYQNLKVLIDPVSVQDKDTLSIHYLMLPRVREELIDKKTESAVSQMQSVIELGRVIRDRKTIPIKYPLKEIVVIHQDPEALKDIKSLEKYIIEELNVRKVTLSTDKNKYGIRLRAEPDHMVLGKRLKGAFKAVMTSIKQLSSEELEQFQKTGTIVVEGHELHDEDIRLMYTFDQATGGTAQFEAHSDAQALVLLDVTPDQSMVDEGMAREVINRIQKLRKKCNLVPTDEITVYYKAKSEGTYLNSVIESHTEFIFTTIKAPLKPYPVSPSDKVLIQEKTQLKGSELEITLTRGSSLPGPACAYVNLNICANGSEQGGVLLLENPKGDNRLDLLKLKSVVTSIFGVKNTELAVFHDETEIQNQTDLLSLSGKTLCVTAGSAPSLINSSSTLLCQYINLQLLNAKPQECLMGTVGTLLLENPLGQNGLTHQGLLYEAAKVFGLRSRKLKLFLNETQTQEITEDIPVKTLNMKTVYVSVLPTTADF", "susceptibility to cleavage by granzyme B": "cleaved"}, {"molecule": "Histidyl tRNA synthetase (Jo-1): autoantigen targeted in autoimmune myositis (protein) AERAALEELVKLQGERVRGLKQQKASAELIEEEVAKLLKLKAQLGPDESKQKFVLKTPKGTRDYSPRQMAVREKVFDVIIRCFKRHGAEVIDTPVFELKETLMGKYGEDSKLIYDLKDQGGELLSLRYDLTVPFARYLAMNKLTNIKRYHIAKVYRRDNPAMTRGRYREFYQCDFDIAGNFDPMIPDAECLKIMCEILSSLQIGDFLVKVNDRRILDGMFAICGVSDSKFRTICSSVDKLDKVSWEEVKNEMVGEKGLAPEVADRIGDYVQQHGGVSLVEQLLQDPKLSQNKQALEGLGDLKLLFEYLTLFGIDDKISFDLSLARGLDYYTGVIYEAVLLQTPAQAGEEPLGVGSVAAGGRYDGLVGMFDPKGRKVPCVGLSIGVERIFSIVEQRLEALEEKIRTTETQVLVASAQKKLLEERLKLVSELWDAGIKAELLYKKNPKLLNQLQYCEEAGIPLVAIIGEQELKDGVIKLRSVTSREEVDVRREDLVEEIKRRTGQPLCIC", "susceptibility to cleavage by granzyme B": "cleaved"}, {"molecule": "La: autoantigen (protein, UniProt P05455 1-408, looked up) Lupus La protein: MAENGDNEKMAALEAKICHQIEYYFGDFNLPRDKFLKEQIKLDEGWVPLEIMIKFNRLNRLTTDFNVIVEALSKSKAELMEISEDKTKIRRSPSKPLPEVTDEYKNDVKNRSVYIKGFPTDATLDDIKEWLEDKGQVLNIQMRRTLHKAFKGSIFVVFDSIESAKKFVETPGQKYKETDLLILFKDDYFAKKNEERKQNKVEAKLRAKQEQEAKQKLEEDAEMKSLEEKIGCLLKFSGDLDDQTCREDLHILFSNHGEIKWIDFVRGAKEGIILFKEKAKEALGKAKDANNGNLQLRNKEVTWEVLEGEVEKEALKKIIEDQQESLNKWKSKGRRFKGKGKGNKAAQPGSGKGKVQFQGKKTKFASDDEHDEHDENGATGPVKRAREETDKEEPASKQQKTENGAGDQ", "susceptibility to cleavage by granzyme B": "efficiently cleaved"}, {"molecule": "Fibrilliarin: autoantigen (protein) MKPGFSPRGGGFGGRGGFGDRGGRGGRGGFGGGRGRGGGFRGRGRGGGGGGGGGGGGGRGGGGFHSGGNRGRGRGGKRGNQSGKNVMVEPHRHEGVFICRGKEDALVTKNLVPGESVYGEKRVSISEGDDKIEYRAWNPFRSKLAAAILGGVDQIHIKPGAKVLYLGAASGTTVSHVSDIVGPDGLVYAVEFSHRSGRDLINLAKKRTNIIPVIEDARHPHKYRMLIAMVDVIFADVAQPDQTRIVALNAHTFLRNGGHFVISIKANCIDSTASAEAVFASEVKKMQQENMKPQEQLTLEPYERDHAVVVGVYRPPPKVKN", "susceptibility to cleavage by granzyme B": "efficiently cleaved"}, {"molecule": "Alanyl tRNA synthetase (PL-12): autoantigen targeted in autoimmune myositis (protein) MDSTLTASEIRQRFIDFFKRNEHTYVHSSATIPLDDPTLLFANAGMNQFKPIFLNTIDPSHPMAKLSRAANTQKCIRAGGKHNDLDDVGKDVYHHTFFEMLGSWSFGDYFKELACKMALELLTQEFGIPIERLYVTYFGGDEAAGLEADLECKQIWQNLGLDDTKILPGNMKDNFWEMGDTGPCGPCSEIHYDRIGGRDAAHLVNQDDPNVLEIWNLVFIQYNREADGILKPLPKKSIDTGMGLERLVSVLQNKMSNYDTDLFVPYFEAIQKGTGARPYTGKVGAEDADGIDMAYRVLADHARTITVALADGGRPDNTGRGYVLRRILRRAVRYAHEKLNASRGFFATLVDVVVQSLGDAFPELKKDPDMVKDIINEEEVQFLKTLSRGRRILDRKIQSLGDSKTIPGDTAWLLYDTYGFPVDLTGLIAEEKGLVVDMDGFEEERKLAQLKSQGKGAGGEDLIMLDIYAIEELRARGLEVTDDSPKYNYHLDSSGSYVFENTVATVMALRREKMFVEEVSTGQECGVVLDKTCFYAEQGGQIYDEGYLVKVDDSSEDKTEFTVKNAQVRGGYVLHIGTIYGDLKVGDQVWLFIDEPRRRPIMSNHTATHILNFALRSVLGEADQKGSLVAPDRLRFDFTAKGAMSTQQIKKAEEIANEMIEAAKAVYTQDCPLAAAKAIQGLRAVFDETYPDPVRVVSIGVPVSELLDDPSGPAGSLTSVEFCGGTHLRNSSHAGAFVIVTEEAIAKGIRRIVAVTGAEAQKALRKAESLKKCLSVMEAKVKAQTAPNKDVQREIADLGEALATAVIPQWQKDELRETLKSLKKVMDDLDRASKADVQKRVLEKTKQFIDSNPNQPLVILEMESGASAKALNEALKLFKMHSPQTSAMLFTVDNEAGKITCLCQVPQNAANRGLKASEWVQQVSGLMDGKGGGKDVSAQATGKNVGCLQEALQLATSFAQLRLGDVKN", "susceptibility to cleavage by granzyme B": "cleaved"}, {"molecule": "NOR-90: autoantigen (protein, UniProt P17480 1-764, looked up) Nucleolar transcription …: MNGEADCPTDLEMAAPKGQDRWSQEDMLTLLECMKNNLPSNDSSKFKTTESHMDWEKVAFKDFSGDMCKLKWVEISNEVRKFRTLTELILDAQEHVKNPYKGKKLKKHPDFPKKPLTPYFRFFMEKRAKYAKLHPEMSNLDLTKILSKKYKELPEKKKMKYIQDFQREKQEFERNLARFREDHPDLIQNAKKSDIPEKPKTPQQLWYTHEKKVYLKVRPDATTKEVKDSLGKQWSQLSDKKRLKWIHKALEQRKEYEEIMRDYIQKHPELNISEEGITKSTLTKAERQLKDKFDGRPTKPPPNSYSLYCAELMANMKDVPSTERMVLCSQQWKLLSQKEKDAYHKKCDQKKKDYEVELLRFLESLPEEEQQRVLGEEKMLNINKKQATSPASKKPAQEGGKGGSEKPKRPVSAMFIFSEEKRRQLQEERPELSESELTRLLARMWNDLSEKKKAKYKAREAALKAQSERKPGGEREERGKLPESPKRAEEIWQQSVIGDYLARFKNDRVKALKAMEMTWNNMEKKEKLMWIKKAAEDQKRYERELSEMRAPPAATNSSKKMKFQGEPKKPPMNGYQKFSQELLSNGELNHLPLKERMVEIGSRWQRISQSQKEHYKKLAEEQQKQYKVHLDLWVKSLSPQDRAAYKEYISNKRKSMTKLRGPNPKSSRTTLQSKSESEEDDEEDEDDEDEDEEEEDDENGDSSEDGGDSSESSSEDESEDGDENEEDDEDEDDDEDDDEDEDNESEGSSSSSSSSGDSSDSDSN", "susceptibility to cleavage by granzyme B": "efficiently cleaved"}]}]}
